# From paper PMC4964276
# Tests used:
# PKA RIIα (Homo sapiens) = PKA RIIα (Homo sapiens) (UniProt P13861); assay: SPR; conditions: cited from earlier work
# [1] = target: AKAP18β 30-mer peptide, Ala67 to aspartate (human); assay: peptide or protein array
# [2] = target: AKAP18β 30-mer peptide, Val60 to aspartate (human); assay: peptide or protein array
# [3] = target: AKAP18β 30-mer peptide, Val64 to aspartate (human); assay: peptide or protein array
# [4] = target: AKAP18β 30-mer peptide, Ala63 to aspartate (human); assay: peptide or protein array
# Chain of RIIα subunits, recombinant, radioactively labelled (32P) (P13861 whole entry): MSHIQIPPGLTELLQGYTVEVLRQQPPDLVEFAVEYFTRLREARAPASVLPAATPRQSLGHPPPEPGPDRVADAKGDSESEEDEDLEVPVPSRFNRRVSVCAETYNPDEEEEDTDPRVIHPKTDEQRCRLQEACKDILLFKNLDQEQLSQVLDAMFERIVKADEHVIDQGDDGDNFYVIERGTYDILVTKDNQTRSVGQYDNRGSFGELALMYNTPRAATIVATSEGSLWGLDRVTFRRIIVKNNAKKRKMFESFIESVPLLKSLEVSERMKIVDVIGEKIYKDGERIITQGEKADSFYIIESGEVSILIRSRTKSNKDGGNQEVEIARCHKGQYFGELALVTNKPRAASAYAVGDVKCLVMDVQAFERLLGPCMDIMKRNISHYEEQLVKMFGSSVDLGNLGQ
# Chain of PKA RIIα (Homo sapiens) (P13861 2-404): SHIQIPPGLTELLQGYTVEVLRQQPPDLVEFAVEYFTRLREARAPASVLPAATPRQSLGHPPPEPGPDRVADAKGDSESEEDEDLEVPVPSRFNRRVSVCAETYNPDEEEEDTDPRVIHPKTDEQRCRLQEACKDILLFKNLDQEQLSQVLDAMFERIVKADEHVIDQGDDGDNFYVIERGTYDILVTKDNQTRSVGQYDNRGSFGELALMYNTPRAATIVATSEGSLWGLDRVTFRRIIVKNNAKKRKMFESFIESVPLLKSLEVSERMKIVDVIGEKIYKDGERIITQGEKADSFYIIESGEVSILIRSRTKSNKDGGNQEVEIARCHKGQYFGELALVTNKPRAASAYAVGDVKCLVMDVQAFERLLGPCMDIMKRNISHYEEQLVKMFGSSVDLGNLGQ
# Chain of AKAP18δ PKA-binding domain peptide PKA-binding domain (25 aa) (Q9P0M2 295-319, stated change not applied): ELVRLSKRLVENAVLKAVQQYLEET
Substance,Kd (PKA RIIα (Homo sapiens)) [pM],reduction of binding (% against the wild-type peptide) [1] [%],reduction of binding (% against the wild-type peptide) [2] [%],reduction of binding (% against the wild-type peptide) [3] [%],reduction of binding (% against the wild-type peptide) [4] [%]
AKAP18δ PKA-binding domain peptide PKA-binding domain (25 aa) (from UniProt Q9P0M2),400,,,,
"RIIα subunits, recombinant, radioactively labelled (32P) (from UniProt P13861 1-404) (natural protein)",,> 60,> 60,> 60,> 60
